How the values were obtained:
[1] = biological target: T1, mouse retinoblastoma protein (RB), endogenous in MEFs (mouse, UniProt P13405 2-921); experiment: cell-based or functional assay
T1 sequence (looked up): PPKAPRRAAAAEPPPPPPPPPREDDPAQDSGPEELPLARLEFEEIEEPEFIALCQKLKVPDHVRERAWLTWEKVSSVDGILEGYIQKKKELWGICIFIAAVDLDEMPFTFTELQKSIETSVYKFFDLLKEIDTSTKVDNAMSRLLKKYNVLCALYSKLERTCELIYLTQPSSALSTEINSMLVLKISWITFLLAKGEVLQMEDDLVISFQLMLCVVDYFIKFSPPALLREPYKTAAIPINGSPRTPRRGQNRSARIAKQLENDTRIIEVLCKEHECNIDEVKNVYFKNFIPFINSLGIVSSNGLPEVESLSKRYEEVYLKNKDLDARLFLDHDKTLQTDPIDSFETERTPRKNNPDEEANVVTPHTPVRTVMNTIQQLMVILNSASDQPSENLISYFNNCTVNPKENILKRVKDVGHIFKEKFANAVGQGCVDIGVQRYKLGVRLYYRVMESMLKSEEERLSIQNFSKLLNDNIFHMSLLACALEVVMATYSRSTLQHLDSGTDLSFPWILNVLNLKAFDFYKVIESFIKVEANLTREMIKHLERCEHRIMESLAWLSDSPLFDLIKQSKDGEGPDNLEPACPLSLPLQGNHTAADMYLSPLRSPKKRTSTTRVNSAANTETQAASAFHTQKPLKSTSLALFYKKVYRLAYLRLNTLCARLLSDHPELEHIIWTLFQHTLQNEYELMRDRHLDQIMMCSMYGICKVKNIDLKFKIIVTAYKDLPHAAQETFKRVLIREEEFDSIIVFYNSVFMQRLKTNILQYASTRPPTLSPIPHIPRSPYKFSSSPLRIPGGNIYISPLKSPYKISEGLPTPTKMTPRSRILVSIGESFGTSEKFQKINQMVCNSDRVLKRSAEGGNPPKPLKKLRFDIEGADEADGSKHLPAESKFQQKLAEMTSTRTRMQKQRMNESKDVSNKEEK

[2] = biological target: mouse STAT3 (endogenous in GT1-7 cells and VSMC, or expressed from mouse STAT3 pcDNA3 in HEK293 cells) (mouse, UniProt P42227 2-770); experiment: immunoprecipitation with anti-STAT3 antibody from GT1-7 cell extracts with or without leptin (100 nM), immunoblot with anti-PRMT-2 antibody
Protocol: A mouse hypothalamic cell line, GT1-7, was established that expressed both STAT3 and PRMT-2 (FIG. 21B), and used as a cell model for the study of leptin signaling. To further examine whether leptin stimulated endogenous interaction between PRMT-2 and STAT3, extracts from the cells that were untreated or treated with mouse leptin (100 nM) were subjected to immunoprecipitation with anti-STAT3 antibody, followed by immunoblotting with anti-PRMT-2 antibody. […] However, treatment with leptin enhanced that amount PRMT-2 that co-precipitated with STAT3 (FIG. 21B, lane 3). PRMT-2 was not detectable in immunoprecipitates obtained with preimmune rabbit IgG (FIG. 21B, lane 1).

[3] = biological target: T2, RelA (p65) in 293 cells (UniProt Q04206 1-551); experiment: immunoprecipitation with anti-HA antibody from transfected 293 cells, immunoblot for p65
T2 construct: also called endogenous p65
Text: (§1) To map IκB-α domains that interacted with PRMT2, 293 cells were transfected with HA-tagged PRMT2 (FIG. 5C) and His-tagged derivatives of the indicated IκB-α expression vectors (FIG. 5B) as indicated. 24 hrs later cells were harvested in cell lysis buffer and cell lysates were immunoprecipitated with agarose-conjugated antibody to His (IκB-α) (FIG. 5D, lanes 1-4) and HA (PRMT2) (FIG. 5D, lanes 5-6), fractionated by SDS-PAGE and analyzed by immunoblotting with antibody to HA to detect PRMT2 ((FIG. 5D lanes 1, 2 and lanes 5, 6) and His (FIG. 5D, lanes 3, 4). To map the region of PRMT2 that interacted with endogenous IκB-α and p65, 293 cells were transfected with HA-tagged PRMT2 (FIG. 5C) derivatives as indicated. Cells were harvested 24 hrs after transfection in cell lysis buffer, immunoprecipitated with agarose-conjugated antibody to HA to detect PRMT2 and derivatives (FIG. 5E, lanes 7-15), fractionated by SDS-PAGE and analyzed by immunoblotting with antibody to p65 (FIG. 5E, lanes 7-9), IκB-α (FIG. 5E, lanes 10-12) or HA (FIG. 5E, lanes 13-15).
A polyclonal antibody to recombinant PRMT2 was used to examine the association between endogenous PRMT2 and IκB-α in vivo. […] The domain of IκB-α required for association with PRMT2 was mapped using in vivo immunoprecipitation assays where HA-tagged PRMT2 was coexpressed with truncation mutants of His-tagged IκB-α (FIG. 5B) in 293 cells. The ankyrin domain was both necessary and sufficient for this association (FIG. 5D, lanes 1 and 2). The domain of PRMT2 that interacted with endogenous IκB-α was mapped by immunoprecipitation following expression HA-tagged PRMT2 truncation mutants (FIG. 5C). […] When the ratios of PRMT2 or PRMT2-A binding to IκB-α were compared, both interacted with IκB-α with similar affinity.

[4] = biological target: T3, IκB-α, endogenous in 293 cells (human, UniProt P25963 1-317); experiment: immunoprecipitation with anti-HA antibody from transfected 293 cells, immunoblot for endogenous IκB-α
T3 construct: also called endogenous IκB-α
T3 sequence (looked up): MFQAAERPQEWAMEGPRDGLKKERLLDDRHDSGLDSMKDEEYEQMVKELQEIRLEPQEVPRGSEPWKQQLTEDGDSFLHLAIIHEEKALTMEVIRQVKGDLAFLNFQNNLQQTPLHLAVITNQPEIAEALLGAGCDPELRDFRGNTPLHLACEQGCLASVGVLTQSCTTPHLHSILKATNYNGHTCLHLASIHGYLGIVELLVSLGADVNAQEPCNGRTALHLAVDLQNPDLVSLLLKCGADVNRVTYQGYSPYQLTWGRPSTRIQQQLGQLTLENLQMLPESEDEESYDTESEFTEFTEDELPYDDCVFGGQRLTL
Text: as §1
(§2) A polyclonal antibody to recombinant PRMT2 was used to examine the association between endogenous PRMT2 and IκB-α in vivo. […] The domain of IκB-α required for association with PRMT2 was mapped using in vivo immunoprecipitation assays where HA-tagged PRMT2 was coexpressed with truncation mutants of His-tagged IκB-α (FIG. 5B) in 293 cells. […]

[5] = biological target: T3, IκB-α, endogenous in 293 cells; experiment: immunoprecipitation with anti-HA antibody from transfected 293 cells, immunoblot for IκB-α
Text: as §1, §2

T2 sequence (Q04206 whole entry): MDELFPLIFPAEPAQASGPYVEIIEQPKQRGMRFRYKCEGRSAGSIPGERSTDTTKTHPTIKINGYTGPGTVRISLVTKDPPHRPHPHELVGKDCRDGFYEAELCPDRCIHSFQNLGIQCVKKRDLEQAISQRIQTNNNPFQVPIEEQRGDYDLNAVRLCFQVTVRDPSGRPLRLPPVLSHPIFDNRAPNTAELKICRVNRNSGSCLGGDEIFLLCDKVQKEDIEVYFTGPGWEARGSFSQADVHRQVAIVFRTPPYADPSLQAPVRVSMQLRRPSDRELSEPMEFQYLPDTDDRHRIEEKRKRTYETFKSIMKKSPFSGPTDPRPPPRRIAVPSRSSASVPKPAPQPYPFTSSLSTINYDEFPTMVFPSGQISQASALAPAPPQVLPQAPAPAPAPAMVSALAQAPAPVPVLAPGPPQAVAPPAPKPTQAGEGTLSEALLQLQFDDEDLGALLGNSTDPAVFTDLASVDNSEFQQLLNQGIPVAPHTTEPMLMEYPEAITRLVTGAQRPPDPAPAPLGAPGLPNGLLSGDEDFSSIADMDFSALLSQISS
Chain of mouse STAT3 (endogenous in GT1-7 cells and VSMC, or expressed from mouse STAT3 pcDNA3 in HEK293 cells) (P42227 2-770 limits assumed): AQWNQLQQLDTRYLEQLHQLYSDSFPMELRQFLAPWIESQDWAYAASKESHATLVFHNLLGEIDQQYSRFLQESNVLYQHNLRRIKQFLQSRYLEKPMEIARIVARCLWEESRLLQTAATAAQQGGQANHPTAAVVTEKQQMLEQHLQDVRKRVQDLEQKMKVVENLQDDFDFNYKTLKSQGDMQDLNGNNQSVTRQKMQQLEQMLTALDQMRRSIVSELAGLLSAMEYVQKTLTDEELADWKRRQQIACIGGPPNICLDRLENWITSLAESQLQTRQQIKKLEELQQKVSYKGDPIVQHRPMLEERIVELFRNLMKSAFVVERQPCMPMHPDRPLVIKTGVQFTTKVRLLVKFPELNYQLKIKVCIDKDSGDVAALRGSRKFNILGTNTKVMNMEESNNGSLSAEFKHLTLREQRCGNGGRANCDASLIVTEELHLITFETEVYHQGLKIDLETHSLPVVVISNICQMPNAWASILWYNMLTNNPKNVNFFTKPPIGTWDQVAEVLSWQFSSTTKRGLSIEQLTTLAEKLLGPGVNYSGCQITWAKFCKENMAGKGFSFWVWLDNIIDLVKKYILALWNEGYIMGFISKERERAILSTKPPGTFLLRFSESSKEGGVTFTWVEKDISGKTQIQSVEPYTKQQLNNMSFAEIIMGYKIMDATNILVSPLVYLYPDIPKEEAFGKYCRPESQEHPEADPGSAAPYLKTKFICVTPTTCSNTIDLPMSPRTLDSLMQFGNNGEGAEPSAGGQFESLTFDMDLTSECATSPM

B1: mouse PRMT2 (untagged; endogenous in NIH3T3 cells, MEFs, GT1-7 cells and VSMC, or expressed from mouse PRMT2 cDNA in HEK293 cells) (enzyme, UniProt Q9R144 1-448, looked up)
chain: MEAPGEGPCSESQVIPVLEEDPVDYGCEMQLLQDGAQLQLQLQPEEFVAIADYTATDETQLSFLRGEKILILRQTTADWWWGERAGCCGYIPANHLGKQLEEYDPEDTWQDEEYFDSYGTLKLHLEMLADQPRTTKYHSVILQNKESLKDKVILDVGCGTGIISLFCAHHARPKAVYAVEASDMAQHTSQLVLQNGFADTITVFQQKVEDVVLPEKVDVLVSEWMGTCLLFEFMIESILYARDTWLKGDGIIWPTTAALHLVPCSAEKDYHSKVLFWDNAYEFNLSALKSLAIKEFFSRPKSNHILKPEDCLSEPCTILQLDMRTVQVPDLETMRGELRFDIQKAGTLHGFTAWFSVYFQSLEEGQPQQVVSTGPLHPTTHWKQTLFMMDDPVPVHTGDVVHGFCCVTKKSGMEKAHVCLSELGCHVRTRSHVSTELETGSFRSGGDS
notes: also called endogenous PRMT2
- E2F reporter activity (E2F4B-Luc) in MEFs [1]: ~3 fold
- binding result [2]: binds

B2: HA-tagged PRMT2-A (alternative splice variant, first 218 amino acids of PRMT2) (enzyme)
chain: MATSGDCPRSESQGEEPAECSEAGLLQEGVQPEEFVAIADYAATDETQLSFLRGEKILILRQTTADWWWGERAGCCGYIPANHVGKHVDEYDPEDTWQDEEYFGSYGTLKLHLEMLADQPRTTKYHSVILQNKESLTDKVILDVGCGTGIISLFCAHYARPRAVYAVEASEMAQHTGQLVLQNGFADIITVYQQKVEDVVLPEKVDVLVSEWMGTCLL
notes: Expressed by transfection in 293 cells; not shown: HA tag at the C-terminus
- binding result [3]: no binding
- binding result [4]: binds

B3: HA-tagged PRMT2-N (first 95 amino acids of PRMT2) (enzyme)
chain: MATSGDCPRSESQGEEPAECSEAGLLQEGVQPEEFVAIADYAATDETQLSFLRGEKILILRQTTADWWWGERAGCCGYIPANHVGKHVDEYDPED
notes: as for B2
- binding result [3]: no binding
- binding result [5]: no binding

Reference: patent US20060239990A1 (published 2006)
